Measured values reported in publication PMC5526978.

Biological target: GCSF-Fc (human granulocyte colony-stimulating factor fused with the IgG1 Fc domain at the C-terminus) (UniProt P09919)
Test: non-reducing SDS-PAGE; purified GCSF-Fc run under reducing and non-reducing conditions, 10% SDS-PAGE

stoichiometry N: 2
Substance: GCSF-Fc (human granulocyte colony-stimulating factor fused with the IgG1 Fc domain at the C-terminus) (from UniProt P09919-2 31-204) (Fc fusion)
